Measured values taken from article PMC9468151, “Identification of a binding site on soluble RANKL that can be targeted to inhibit soluble RANK-RANKL interactions and treat osteoporosis” (Nature Communications, 2022).
Values joined by “and” are separate entries in the source; they are usually repeats but may differ in a detail not shown here. Equal entries are not always repeated.

Test system: BMM cells
Assay: Osteoclastogenic assay of WT, single-point mutated sRANKL and L-RANKL
Assay type: cell-based, mouse
Conditions: for number of osteoclasts (fig. 1f): BMMs, M-CSF 10 ng/mL; for osteoclast formation (fig. S4a): three replicates
Protocol: Fig. 1 Evidence for selective sRANKL inhibition binding site identification. a Proposed small molecule binding site that can be used to distinguish sRANKL from mRANKL. b he probabilities that distances of residue pairs greater than 1.8 Å in sRANKL (red) and mRANKL (blue). The data are calculated based on conformation trajectories from 100 ns MD simulations on sRANKL and mRANKL. c SDRP frequency in sRANKL and mRANKL. d, e The distance of Y236-D303 and K182-R224 in sRANKL and mRANKL after MD simulation. f, g and h Osteoclastogenesis function of single-point mutated rat sRANKL and WT sRANKL. Representative TRAP staining images from one well each, with triplicate repeats wells of BMM cells isolated from C57BL/6 mice cultured with colony-stimulating factor 1 (M-CSF (10 ng/mL) and either varying WT sRANKL or mutated sRANKL (25–200 ng/mL). The number of osteoclasts counted in the osteoclastogenesis assay with mutated sRANKL. Data were presented as group mean ± s.d., n = 3 biological replicates.
Mouse osteoclasts were cultured according to the previously reported protocols. BMMs were plated in 96-well plates at a density of 6 × 10^3 cells/well with complete medium containing 10 ng/mL M-CSF. The following day, cells were then stimulated with 100 ng/mL sRANKL in the presence or absence of compounds with different concentrations every 2 days until osteoclasts formed. In order to calculate IC50, we set 9 concentrations for each compound and untreated and non-sRANKL unstimulating group as controls, each with triplicated repeated wells. After 5 days, cells were fixed with 4% paraformaldehyde and then applied TRAP-staining to identify osteoclasts by using the TRAP-staining kit. Osteoclasts number (OC No.) in each well was counted and the percentage of inhibition ratio was calculated as follows:1 OCinhibitoryratio%=100−OCNo.treated−OCNo.unstimulating/OCNo.untreated−OCNo.unstimulating×100%
GST-sRANKL was expressed and purified following a previously reported protocol. Rat sRANKL (aa160–318) cDNA was cloned into the bacterial expression vectors pGEX-3X and pGEX-2T with purification GST tag and resultant plasmid named p3rRANKL1. Label-free sRANKL protein in this study was obtained by removing His6-sumo tag from fusion protein His6-sumo-sRANKL. The DNA sequence encoding sRNAKL was inserted downstream the His6-sumo tag of a modified pET20b (+) plasmid. Single point mutations of sRANKL (K182A, R192A, W194A, R224A, H226A, E227A, Q238A, Y242A, H254A, N255A, E270A, K283A, D301A, D303A, or D305A) were constructed by PCR amplification using primer pairs to introduce the designed mutations to pET20b-His6-sumo-sRANKL recombinant plasmid. L-RANKL (binary-RANKL) plasmid was constructed as follow: the consecutive DNA sequence sequentially encoding His6-sumo tag and two sRANKL monomers was cloned into pET20b by PCR amplification using primer pairs to introduce the following restriction enzyme sites to the coding sequences: Nde I-His6-sumo-sRANKL-Bam HI and Bam HI-sRNAKL-Xho I. Each PCR product was double digested with the appropriate restriction enzymes (Thermo) and ligated to the pET20b vector between the Nde I and Xho I sites. Gly-Ser-Gly-Ser was designed to link the two monomers. After confirmed by sequence analysis, the recombinant plasmids were transformed into Escherichia coli BL21 (DE3) cells. The transformed cells were grown in LB media till OD600 about 0.6, then 0.15 mM IPTG was added to induce protein overexpression for 16 h at 20 °C.

Molecule	number of osteoclasts (fig. 1f) (sRANKL protein 25 ng/mL)	number of osteoclasts (fig. 1f) (sRANKL protein 50 ng/mL)	number of osteoclasts (fig. 1f) (sRANKL protein 100 ng/mL)	number of osteoclasts (fig. 1f) (sRANKL protein 200 ng/mL)	osteoclast formation (fig. S4a) (25 ng/mL)	osteoclast formation (fig. S4a) (50 ng/mL)	osteoclast formation (fig. S4a) (100 ng/mL)	osteoclast formation (fig. S4a) (200 ng/mL)	osteoclastogenesis activity, osteoclast number (fig. S3a source data) (L-RANKL vs WT sRANKL, listed as WT-RANKL)
H226A: single-point mutated rat sRANKL (protein, UniProt Q9ESE2 69-318, looked up, variant H226A, extracellular domain, single-point mutated rat sRANKL) extracellular domain: LYFRAQMDPNRISEDSTRCFYRILRLRENTGLQDSTLESEDTEALPDSCRRMKQAFQGAVQRELQHIVGPQRFSGVPAMMEGSWLDVARRGKPEAQPFAHLTINAADIPSGSHKVSLSSWYHDRGWAKISNMTLSNGKLRVNQDGFYYLYANICFRHAETSGSVPADYLQLMVYVVKTSIKIPSSHNLMKGGSTKNWSGNSEFHFYSINVGGFFKLRAGEEISVQVSNPSLLDPDQDATYFGAFKVQDID	0	0	0	0					
Q238A: single-point mutated rat sRANKL (protein, UniProt Q9ESE2 69-318, looked up, variant Q238A, extracellular domain, single-point mutated rat sRANKL) extracellular domain: LYFRAQMDPNRISEDSTRCFYRILRLRENTGLQDSTLESEDTEALPDSCRRMKQAFQGAVQRELQHIVGPQRFSGVPAMMEGSWLDVARRGKPEAQPFAHLTINAADIPSGSHKVSLSSWYHDRGWAKISNMTLSNGKLRVNQDGFYYLYANICFRHHETSGSVPADYLALMVYVVKTSIKIPSSHNLMKGGSTKNWSGNSEFHFYSINVGGFFKLRAGEEISVQVSNPSLLDPDQDATYFGAFKVQDID	218 and 174 and 207	153 and 140 and 132	166 and 142 and 153	155 and 163 and 151					
E270A: single-point mutated rat sRANKL (protein, left off: His6, N-terminal, cleaved | SUMO, N-terminal, cleaved, single-point mutated rat sRANKL) KPEAQPFAHLTINAADIPSGSHKVSLSSWYHDRGWAKISNMTLSNGKLRVNQDGFYYLYANICFRHHETSGSVPADYLQLMVYVVKTSIKIPSSHNLMKGGSTKNWSGNSAFHFYSINVGGFFKLRAGEEISVQVSNPSLLDPDQDATYFGAFKVQDID	0	0	0	0					
K182A: single-point mutated rat sRANKL (protein, left off: His6, N-terminal, cleaved | SUMO, N-terminal, cleaved, single-point mutated rat sRANKL) KPEAQPFAHLTINAADIPSGSHAVSLSSWYHDRGWAKISNMTLSNGKLRVNQDGFYYLYANICFRHHETSGSVPADYLQLMVYVVKTSIKIPSSHNLMKGGSTKNWSGNSEFHFYSINVGGFFKLRAGEEISVQVSNPSLLDPDQDATYFGAFKVQDID	0	0	0	0					
WT: wild type recombinant rat sRANKL (protein, left off: His6, N-terminal, cleaved | SUMO, N-terminal, cleaved, wild type recombinant rat sRANKL) KPEAQPFAHLTINAADIPSGSHKVSLSSWYHDRGWAKISNMTLSNGKLRVNQDGFYYLYANICFRHHETSGSVPADYLQLMVYVVKTSIKIPSSHNLMKGGSTKNWSGNSEFHFYSINVGGFFKLRAGEEISVQVSNPSLLDPDQDATYFGAFKVQDID	53 and 61 and 57	118 and 103 and 116	198 and 201 and 205	198 and 201 and 205	53 and 61 and 57	118 and 103 and 116	201 and 205	201 and 205	341 and 355 and 358
R224A: single-point mutated rat sRANKL (protein, left off: His6, N-terminal, cleaved | SUMO, N-terminal, cleaved, single-point mutated rat sRANKL) KPEAQPFAHLTINAADIPSGSHKVSLSSWYHDRGWAKISNMTLSNGKLRVNQDGFYYLYANICFAHHETSGSVPADYLQLMVYVVKTSIKIPSSHNLMKGGSTKNWSGNSEFHFYSINVGGFFKLRAGEEISVQVSNPSLLDPDQDATYFGAFKVQDID	0	0	0	0					
D301A: single-point mutated rat sRANKL (protein, left off: His6, N-terminal, cleaved | SUMO, N-terminal, cleaved, single-point mutated rat sRANKL) KPEAQPFAHLTINAADIPSGSHKVSLSSWYHDRGWAKISNMTLSNGKLRVNQDGFYYLYANICFRHHETSGSVPADYLQLMVYVVKTSIKIPSSHNLMKGGSTKNWSGNSEFHFYSINVGGFFKLRAGEEISVQVSNPSLLAPDQDATYFGAFKVQDID	0	0	0	0					
E227A: single-point mutated rat sRANKL (protein, left off: His6, N-terminal, cleaved | SUMO, N-terminal, cleaved, single-point mutated rat sRANKL) KPEAQPFAHLTINAADIPSGSHKVSLSSWYHDRGWAKISNMTLSNGKLRVNQDGFYYLYANICFRHHATSGSVPADYLQLMVYVVKTSIKIPSSHNLMKGGSTKNWSGNSEFHFYSINVGGFFKLRAGEEISVQVSNPSLLDPDQDATYFGAFKVQDID	0	0	0	0					
D303A: single-point mutated rat sRANKL (protein, left off: His6, N-terminal, cleaved | SUMO, N-terminal, cleaved, single-point mutated rat sRANKL) KPEAQPFAHLTINAADIPSGSHKVSLSSWYHDRGWAKISNMTLSNGKLRVNQDGFYYLYANICFRHHETSGSVPADYLQLMVYVVKTSIKIPSSHNLMKGGSTKNWSGNSEFHFYSINVGGFFKLRAGEEISVQVSNPSLLDPAQDATYFGAFKVQDID	0	0	0	0					
Y242A: single-point mutated rat sRANKL (protein, left off: His6, N-terminal, cleaved | SUMO, N-terminal, cleaved, single-point mutated rat sRANKL) KPEAQPFAHLTINAADIPSGSHKVSLSSWYHDRGWAKISNMTLSNGKLRVNQDGFYYLYANICFRHHETSGSVPADYLQLMVAVVKTSIKIPSSHNLMKGGSTKNWSGNSEFHFYSINVGGFFKLRAGEEISVQVSNPSLLDPDQDATYFGAFKVQDID		1 and 2	5 and 7	12 and 14 and 11					
